Measurements: the supplement of paper PMC9233669
This sample holds only a part of the variants without activity.

Key:
biotinyl-Val-oxazolone = assay: self-aminoacylation, catalytic enhancement (BVO) (fold over background); higher = more active; k-Seq, kA / k0A0; sequences stand for … in GGGAAUGGAUCCACAUCUACGAAUUC…UUCACUGCAGACUUGACGAAGCUG
In short: (§1)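 Catalytic enhancement equals the median kA over the uncatalyzed rate, the latter read from the low-activity peak of a bimodal Gaussian fit. Values of kA came from fitting each sequence's fraction reacted to a pseudo-first-order model, with 1000 bootstraps. Reacted RNA was captured with streptavidin and quantified by triplicate qPCR and Illumina sequencing after 90 minutes at room temperature with 2–1250 μM biotinyl-aminoacyl-oxazolone and 0.43 μM mutagenized RNA pools bearing a 21-nt variable region.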

biotinyl-Ile-oxazolone = assay: self-aminoacylation, catalytic enhancement (BIO) (fold over background); higher = more active; k-Seq, kA / k0A0; sequences stand for … in GGGAAUGGAUCCACAUCUACGAAUUC…UUCACUGCAGACUUGACGAAGCUG
In short: as §1

biotinyl-Leu-oxazolone = assay: self-aminoacylation, catalytic enhancement (BLO) (fold over background); higher = more active; k-Seq, kA / k0A0; sequences stand for … in GGGAAUGGAUCCACAUCUACGAAUUC…UUCACUGCAGACUUGACGAAGCUG
In short: as §1

biotinyl-Trp-oxazolone = assay: self-aminoacylation, catalytic enhancement (BWO) (fold over background); higher = more active; k-Seq, kA / k0A0; sequences stand for … in GGGAAUGGAUCCACAUCUACGAAUUC…UUCACUGCAGACUUGACGAAGCUG
In short: as §1

biotinyl-Met-oxazolone = assay: self-aminoacylation, catalytic enhancement (BMO) (fold over background); higher = more active; k-Seq, kA / k0A0; sequences stand for … in GGGAAUGGAUCCACAUCUACGAAUUC…UUCACUGCAGACUUGACGAAGCUG
In short: as §1

biotinyl-Phe-oxazolone = assay: self-aminoacylation, catalytic enhancement (BFO) (fold over background); higher = more active; k-Seq, kA / k0A0; sequences stand for … in GGGAAUGGAUCCACAUCUACGAAUUC…UUCACUGCAGACUUGACGAAGCUG
In short: as §1

| Sequence | self-aminoacylation (biotinyl-Val-oxazolone) | self-aminoacylation (biotinyl-Ile-oxazolone) | self-aminoacylation (biotinyl-Leu-oxazolone) | self-aminoacylation (biotinyl-Trp-oxazolone) | self-aminoacylation (biotinyl-Met-oxazolone) | self-aminoacylation (biotinyl-Phe-oxazolone) |
| --- | --- | --- | --- | --- | --- | --- |
| AUCUACCUAGGUCAUCGGGUG [Fam2.2 aminoacylation ribozyme variant] | 6.18 | 6.54 | 12.1 | 8.66 | 10 | 51.1 |
| AUCUCCCUGGUCAUCGAGUGA [Fam2.1 aminoacylation ribozyme variant] | 4.7 | 4.57 | 9.06 | 10.2 | 9.05 | 27.2 |
| AUGACACUGGUCAUCGAGUGA [Fam2.1 aminoacylation ribozyme variant] | 3.05 | 3.42 | 6.42 | 6.47 | 5.48 | 25.8 |
| AUGACCCUGGACAUCGAGUGA [Fam2.1 aminoacylation ribozyme variant] | 2.11 | 2.27 | 3.95 | 5.26 | 5.12 | 15.9 |
| AUGACCCUGGUCACCGAGUGA [Fam2.1 aminoacylation ribozyme variant] | 5.03 | 3.68 | 11.7 | 9.23 | 10.5 | 45.5 |
| AUGACCCUGGUCAUCCAGUGA [Fam2.1 aminoacylation ribozyme variant] | 3.16 | 3.84 | 7.02 | 7.7 | 6.57 | 38.6 |
| AUGACCCUGGUCAUCGAGUAA [Fam2.1 aminoacylation ribozyme variant] | 3.51 | 3.71 | 10.2 | 8.31 | 10.1 | 31.5 |
| AUGACCCUGGUCAUCGAGUGU [Fam2.1 aminoacylation ribozyme variant] | 23.7 | 20.6 | 85.3 | 64.9 | 89.5 | 692 |
| AUGACCCUGGUCCUCGAGUGA [Fam2.1 aminoacylation ribozyme variant] | 1.77 | 1.88 | 3.2 | 3.81 | 3.2 | 22.1 |
| AUGACCCUGGUUAUCGAGUGA [Fam2.1 aminoacylation ribozyme variant] | 3.36 | 3.39 | 7.14 | 8.52 | 6.78 | 15.5 |
| AUGACCGUGGUCAUCGAGUGA [Fam2.1 aminoacylation ribozyme variant] | 3.22 | 3.34 | 7.27 | 7.37 | 6.71 | 39.7 |
| AUGCAACUAGGUCAUCGGGUG [Fam2.2 aminoacylation ribozyme variant] | 5.58 | 6.38 | 9.82 | 8.26 | 8.13 | 56.2 |
| AUGCACAUAGGUCAUCGGGUG [Fam2.2 aminoacylation ribozyme variant] | 6.08 | 6.5 | 10.2 | 10.4 | 10.5 | 73.3 |
| AUGCACCUAGGUCAUCGGGCG [Fam2.2 aminoacylation ribozyme variant] | 2.47 | 2.08 | 3.22 | 2.53 | 2.37 | 13.5 |
| AUGCACCUAGGUCAUUGGGUG [Fam2.2 aminoacylation ribozyme variant] | 2.16 | 2.33 | 2.53 | 2.72 | 2.3 | 16.6 |
| AUGCACCUAGGUCUUCGGGUG [Fam2.2 aminoacylation ribozyme variant] | 4.2 | 3.64 | 4.14 | 5.59 | 4.93 | 40 |
| AUGCACCUAGGUUAUCGGGUG [Fam2.2 aminoacylation ribozyme variant] | 3.11 | 3.4 | 4.46 | 4.81 | 3.37 | 32.7 |
| AUGCAGCUAGGUCAUCGGGUG [Fam2.2 aminoacylation ribozyme variant] | 3.61 | 2.95 | 4.37 | 3.92 | 3.73 | 24.9 |
| AUGCUUGCUAAUAGUCGCAAG [Fam3.1 aminoacylation ribozyme variant] | 1.32 | 1.81 | 1.33 | 1.99 | 1.61 | 3.19 |
| AUGUUUGAUAAUAGUCGCAAG [Fam3.1 aminoacylation ribozyme variant] | 1.17 | 1.65 | 1.09 | 1.45 | 1.35 | 1.59 |
| AUGUUUGCUAACAGUCGCAAG [Fam3.1 aminoacylation ribozyme variant] | 1.43 | 1.59 | 1.49 | 3.34 | 1.61 | 5.92 |
| AUGUUUGCUAAUAGUCGCUAG [Fam3.1 aminoacylation ribozyme variant] | 1.08 | 1.19 | 1.06 | 1.28 | 1.06 | 1.82 |
